The text below walks through data of publication PMC4519987.

The target in data set [1] is T1, SOX17-Flag (rSOX17-Flag) (UniProt Q9H6I2 1-414). Description: competition; 300-fold excess vs Lef1_Biot; EMSA: 100 mM HEPES pH 8.0, 50 mM KCl, 500 uM DTT, 50 uM EDTA, 1 mM MgCl2, 5% glycerol, 0.02 U poly(dG-dC), 0.3 pmol biotin probe, 300-fold excess competitor; 7%.
In data set [2] the target is T1, SOX17-Flag (rSOX17-Flag). Description: EMSA; EMSA: 100 mM HEPES pH 8.0, 50 mM KCl, 500 uM DTT, 50 uM EDTA, 1 mM MgCl2, 5% glycerol, 0.02 U poly(dG-dC), 0.3 pmol biotin probe, 300-fold excess competitor; 7%.

T1 sequence (Q9H6I2 whole entry): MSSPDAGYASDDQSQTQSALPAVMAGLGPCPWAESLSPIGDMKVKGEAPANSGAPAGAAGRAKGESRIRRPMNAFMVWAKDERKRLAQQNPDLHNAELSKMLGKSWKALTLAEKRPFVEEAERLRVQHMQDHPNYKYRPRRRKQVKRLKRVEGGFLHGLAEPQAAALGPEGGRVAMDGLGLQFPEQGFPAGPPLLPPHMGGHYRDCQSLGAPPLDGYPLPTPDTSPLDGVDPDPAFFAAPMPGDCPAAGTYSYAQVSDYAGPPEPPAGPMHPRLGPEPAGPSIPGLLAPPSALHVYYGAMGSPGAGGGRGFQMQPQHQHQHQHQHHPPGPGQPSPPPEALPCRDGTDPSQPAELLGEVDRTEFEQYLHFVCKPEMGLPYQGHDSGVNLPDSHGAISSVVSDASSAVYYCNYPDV

B1: Lef1_Δ_s1 (dsDNA)
DNA 1: CATTTCTTTATGTCAGGGTGGTACTGTTCTG
DNA 2: CAGAACAGTACCACCCTGACATAAAGAAATG
Turning to B1, the binding result with SOX17-Flag (rSOX17-Flag) [1] is “no binding”.

B2: Lef1_Biot (dsDNA)
DNA 1: CATTTCTTTATGTCCTTTGTTTACTGTTCTG
DNA 2: CAGAACAGTAAACAAAGGACATAAAGAAATG
With B2, in the data set with SOX17-Flag (rSOX17-Flag) [2], the binding result is given as “binds”.

B3: Lef1_s1 (dsDNA)
DNA 1: CATTTCTTTATGTCCTTTGTTTACTGTTCTG
DNA 2: CAGAACAGTAAACAAAGGACATAAAGAAATG
As to B3, the binding result in the data set with SOX17-Flag (rSOX17-Flag) [1] is “binds”.
